{"source": "paper PMC4657161", "about": "(The Journal of Cell Biology, 2015)", "target": "T1, Rab40A (on the HuProt array) (human, UniProt Q8WXH6 1-277)", "T1 sequence": "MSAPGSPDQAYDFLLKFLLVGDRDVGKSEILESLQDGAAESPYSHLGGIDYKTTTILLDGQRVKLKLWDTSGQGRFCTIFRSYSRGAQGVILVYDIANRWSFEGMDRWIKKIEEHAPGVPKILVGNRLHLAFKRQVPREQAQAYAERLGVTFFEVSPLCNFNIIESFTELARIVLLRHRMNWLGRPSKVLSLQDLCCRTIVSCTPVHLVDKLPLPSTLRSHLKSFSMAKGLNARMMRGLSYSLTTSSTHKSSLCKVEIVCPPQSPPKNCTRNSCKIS", "assay": "peptide or protein array", "data": [{"binder": "HIS-RhoU (natural protein) not shown", "values": [{"measurement": "binding result", "value": "binds"}]}]}
